The text below walks through data of US20250109212A1 (BIOSION, published 2025).

Assay [1] has as its target T1, recombinant human CD40-his protein (Cat #: CD0-H5228, Acro biosystems) (human, UniProt P25942 21-193).
T1 construct: Bought protein
The assay can be described thus: SPR (Biacore T200), sample on Protein A chip, antigen-his analyte, 1:1 fit. The source says:
(§1) The purified recombinant fusion proteins were characterized for their binding affinity and binding kinetics by Biacore T200 system (GE healthcare, Pittsburgh, PA, USA). The anti-CD40 antibody HuCD40-C1H1-V2 (having the heavy chain and the light chain of SEQ ID NOs: 19 and 20), Selicrelumab (an agonistic anti-CD40 antibody, Roche Inc., prepared in-house with heavy and light chains of SEQ ID NOs: 27 and 28), and SIRPα-Fc fusion proteins, including SIRPαV2D1M1-Fc (IgG2) (SEQ ID NO: 21, X1=I, X2=R, X3=T, X4=K, X5=F), SIRPαV2D1M2-Fc (IgG2) (SEQ ID NO: 21, X1=I, X2=R, X3=T, X4=R, X5=V), SIRPα-isoform2-Fc (SEQ ID NO: 25) were used as positive controls.
(§2) A Protein A chip (Cat #: 29-1275-56, GE healthcare) was used for affinity determination. The recombinant fusion proteins of the disclosure and the positive controls each at the concentration of 2 μg/ml were respectively flowed onto the chip at a flow rate of 10 μl/min. Then, serially diluted recombinant human CD40-his proteins (Cat #: CD0-H5228, Acro biosystems), human CD47-his proteins (Cat #: CD7-H5227, Acro biosystems), cynomolgus CD40-his proteins (Biosion in house made, SEQ ID NO: 29) or cynomolgus CD47-his proteins (Cat #: CD7-C52H1, Acro biosystems), 2-fold dilution in HBS-EP⁺ buffer (provided by Biacore) with a starting concentration of 200 nM, were flowed onto the chip at a flow rate of 30 μl/min. The association kinetics was followed for 2 minutes and the dissociation kinetics was followed for 10 minutes. The association and dissociation curves were fit to a 1:1 Langmuir binding model using the Biacore evaluation software.
(In general: Surface plasmon resonance follows binding to a sensor surface in real time, without labels.)

Assay [2] deals with T2, cynomolgus CD40-his protein (Biosion in house made) (cynomolgus, UniProt P25942 21-191 (human entry), limits assumed).
T2 construct: also called Cyno CD40-his
T2 chain: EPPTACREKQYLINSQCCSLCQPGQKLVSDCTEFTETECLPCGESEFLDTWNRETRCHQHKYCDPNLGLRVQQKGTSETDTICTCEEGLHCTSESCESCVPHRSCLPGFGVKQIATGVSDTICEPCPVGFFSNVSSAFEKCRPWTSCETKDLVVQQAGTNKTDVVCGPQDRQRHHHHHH
The assay is described as above.
Description: as §1, §2

Assay [3] deals with T3, full length human CD40 (uniprot #P25942-1) on 293T-CD40 cells (human, UniProt P25942 21-277).
T3 construct: whole, on cells
As to the kind of experiment: FACS on 293T-CD40 cells, detection with goat anti-human IgG (Fab)-PE, MFI. On the procedure: Following an incubation of 40 minutes at 4° C. in dark, cells were washed three times and resuspended in FACS buffer. Fluorescence was measured using a Becton Dickinson FACS Canto II-HTS equipment and plotted against the recombinant fusion protein or controls concentration. Data was analyzed using Graphpad Prism and EC₅₀ values were reported.

The target of assay [4] is human CD40-Fc protein (prepared in-house) (human). The assay can be described thus: competitive ELISA: human CD40-Fc coated, blocked ligand biotin-labeled human CD40L-his, OD(450-630). Here is the method:
The ability of the recombinant fusion proteins of the disclosure to block CD40-CD40L binding was measured in a competitive ELISA assay. Briefly, 100 μl/well human CD40-Fc proteins (prepared in-house with amino acid sequence of SEQ ID NO: 22) were coated on 96-well micro plates at 2 μg/mL in coating buffer (carbonate/bicarbonate buffer) and incubated overnight at 4° C. The next day, the plates were washed once with wash buffer (PBS+0.05% v/v Tween-20, PBST), and then blocked with 5% w/v non-fatty milk in PBST for 2 hours at 37° C. The plates were then washed 4 times using the wash buffer.
Serially diluted recombinant fusion proteins of the disclosure or controls (starting at 10 µg/mL with a 5-fold serial dilution) in PBST with 2.5% w/v non-fatty milk were added to the CD40-Fc bound plates, 100 μl per well, and incubated at 37° C. for 40 minutes. The plates were washed 4 times using wash buffer, and then added and incubated for 40 minutes at 37° C. with 100 μl/well 95 ng/mL biotin-labeled human CD40L-his protein (Cat #: 10239-H08E, Sino biological). The plates were washed again using wash buffer, added with 100 μl/well streptavidin conjugated HRP (1:10000 dilution in PBST buffer, Cat #: 016-030-084, Jackson ImmunoResearch) and incubated for 40 minutes at 37° C. The plates were washed again using wash buffer. […] The absorbance was read on a microplate reader using the dual wavelength mode with 450 nm for TMB and 630 nm as the reference wavelength, then the OD (450-630) values were plotted against the recombinant fusion protein or controls concentration. Data was analyzed using Graphpad Prism and IC₅₀ values were reported.

The target in assay [5] is T4, human CD47-his protein (Cat #: CD7-H5227, Acro biosystems) (human, UniProt Q08722 19-139).
T4 construct: Bought protein
The assay can be described thus: SPR (Biacore T200), sample on Protein A chip, antigen-his analyte, 1:1 fit.
Description: as §1, §2

The target in assay [6] is T5, cynomolgus CD47-his protein (Cat #: CD7-C52H1, Acro biosystems) (cynomolgus, UniProt A0A2K5X523 19-139).
T5 construct: Bought protein; also called Cyno CD47-his
The description is as above.
Description: as §1, §2

Assay [7] deals with T6, biotin-labeled human CD47-Fc (Biosion in house made) (human, biotin-labeled (sites not given)).
T6 construct: also called Human CD47-Fc protein
The assay can be described thus: competitive ELISA: binder premixed with biotin-labeled human CD47-Fc, blocked partner coated human CD172a-Fc, OD(450-630). On the procedure: The ability of the recombinant fusion proteins of the disclosure to block CD47-CD172a binding was measured in a competitive ELISA assay. Briefly, 100 μl/well human CD172a-Fc proteins (prepared in-house with amino acid sequence of SEQ ID NO: 24) were coated on 96-well micro plates at 2 μg/mL in coating buffer (carbonate/bicarbonate buffer) and incubated overnight at 4° C. The next day, the plates were washed once with wash buffer (PBS+0.05% v/v Tween-20, PBST), and then blocked with 5% w/v non-fatty milk in PBST for 2 hours at 37° C. The plates were then washed 4 times using wash buffer.
Serially diluted recombinant fusion proteins of the disclosure or controls (starting at 100 nM with a 5-fold serial dilution) were mixed with 20 ng/ml biotin-labeled human CD47-Fc (Biosion in house made, SEQ ID NO: 23) in PBST with 2.5% w/v non-fatty milk. The mixtures were incubated at 37° C. for 40 minutes, and respectively added to the CD172a-Fc bound plates, 100 μl per well. The plates were incubated at 37° C. for 40 minutes, washed 4 times using wash buffer, added with 100 μl/well streptavidin conjugated HRP (1:10000 dilution in PBST buffer, Cat #: 016-030-084, Jackson ImmunoResearch), incubated for 40 minutes at 37° C., and washed again using wash buffer. […] The plates were read on a microplate reader using the dual wavelength mode with 450 nm for TMB and 630 nm as the reference wavelength, and the OD (450-630) values were plotted against the recombinant fusion protein or controls concentration. Data was analyzed using Graphpad Prism and IC₅₀ values were reported. Wild-type SIRPαV2D1-Fc (IgG2) (SEQ ID NO: 21, X1=V, X2=K, X3=S, X4=K, X5=F) was used as a positive control.

Positions count from the first letter of the chain named.

B1: Selicrelumab (antibody, human IgG2, kappa, V domains shown)
VH: not shown
VL: DIQMTQSPSSVSASVGDRVTITCRASQGIYSWLAWYQQKPGKAPNLLIYTASTLQSGVPSRFSGSGSGTDFTLTISSLQPEDFATYYCQQANIFPLTFGGGTKVEIKR
notes: Agonistic anti-CD40 antibody, prepared in-house
As a reminder, the Kd is the concentration at which binding is half-saturated. By koff is commonly meant a measure of how fast the partners let go of each other. As a reminder, the kon is the rate constant with which the complex forms. As a reminder, the EC50 is the midpoint of the concentration-response curve. A high value points to a less potent agent. By IC50 is commonly meant the concentration that inhibits the measured activity by half. A high value points to weaker potency in that assay. Take B1: in assay [1], the Kd worked out at 6.41 nM, the koff came to 0.00231 s⁻¹ and the kon is 360000 M⁻¹ s⁻¹. In assay [2], binding was characterised by a dissociation constant (Kd) of 16.8 nM, the koff was determined as 0.00219 s⁻¹ and the kon was found to be 131000 M⁻¹ s⁻¹. This molecule came in with an EC50 in assay [3] of 2.28 nM. For the same molecule, in assay [4], the IC50 amounted to 3.33 nM.

B2: BSI038×S-003 (bispecific antibody, human IgG2, kappa)
heavy: EVQLVESGGGLVKPGGSLRLSCAASGFTFSNYGISWVRQAPGKGLEWVSSISSGGDNTYYPDNVKGRFTISRDNAKNSLYLQMNSLRAEDTAVYYCARAGEKAMDYWGQGTLVTVSSASTKGPSVFPLAPCSRSTSESTAALGCLVKDYFPEPVTVSWNSGALTSGVHTFPAVLQSSGLYSLSSVVTVPSSNFGTQTYTCNVDHKPSNTKVDKTVERKCCVECPPCPAPPVAGPSVFLFPPKPKDTLMISRTPEVTCVVVDVSHEDPEVQFNWYVDGVEVHNAKTKPREEQFNSTFRVVSVLTVVHQDWLNGKEYKCKVSNKGLPAPIEKTISKTKGQPREPQVYTLPPSREEMTKNQVSLTCLVKGFYPSDIAVEWESNGQPENNYKTTPPMLDSDGSFFLYSKLTVDKSRWQQGNVFSCSVMHEALHNHYTQKSLSLSPGK
light: not shown
notes: Wild-type SIRPαV2D1 linked to C-terminus of each light chain of HuCD40-C1H1-V2 (human IgG2)
Take B2: in assay [1], the Kd stood at 0.71 nM, the koff is 0.00183 s⁻¹ and the kon amounted to 2.57e+06 M⁻¹ s⁻¹. For the same molecule, the response in assay [3] was half-maximal at 1.54 nM (EC50). Moreover, the IC50 in assay [4] was determined as 2.93 nM.

B3: SIRPαV2D1M1-Fc (IgG2) (Fc fusion)
chain: EEELQVIQPDKSVSVAAGESAILHCTITSLIPVGPIQWFRGAGPARELIYNQREGHFPRVTTVSETTKRENMDFSISISNITPADAGTYYCVKFRKGSPDTEFKSGAGTELSVRAKPSAPVVSGPAARATPGGGGSGGGGSERKCCVECPPCPAPPVAGPSVFLFPPKPKDTLMISRTPEVTCVVVDVSHEDPEVQFNWYVDGVEVHNAKTKPREEQFNSTFRVVSVLTVVHQDWLNGKEYKCKVSNKGLPAPIEKTISKTKGQPREPQVYTLPPSREEMTKNQVSLTCLVKGFYPSDIAVEWESNGQPENNYKTTPPMLDSDGSFFLYSKLTVDKSRWQQGNVFSCSVMHEALHNHYTQKSLSLSPGK
notes: also called SIRPαV2M1-Fc(IgG2)
In the case of B3, in assay [5], the affinity, expressed as Kd, was 0.952 nM; the koff was 0.000401 s⁻¹; the kon was found to be 421000 M⁻¹ s⁻¹. In assay [6], this molecule registered a Kd of 4.88 nM, a koff of 0.000371 s⁻¹ and a kon of 76000 M⁻¹ s⁻¹. Moreover, the IC50 in assay [7] is 8.87 nM.

B4: SIRPαV2D1M2-Fc (IgG2) (Fc fusion)
chain: B3 chain with K68R, F103V
notes: also called SIRPαV2M2-Fc(IgG2)
As to B4, in assay [5], the Kd is 1.07 nM, the koff was 0.000417 s⁻¹ and the kon turned out to be 388000 M⁻¹ s⁻¹. In assay [6], this molecule had a Kd of 7.01 nM, a koff of 0.000438 s⁻¹ and a kon of 62400 M⁻¹ s⁻¹. Moreover, the IC50 in assay [7] came to 11.8 nM.

B5: BSI038×S-001 (bispecific antibody, human IgG2, kappa)
heavy: not shown
light: EIVLTQSPATLSLSPGERATLSCRASQTINNNLHWYQQKPGQAPRLLIKYASQSISGIPARFSGSGSGTDFTLTISSLEPEDFAVYFCQQFSSWPLTFGGGTKVEIKRTVAAPSVFIFPPSDEQLKSGTASVVCLLNNFYPREAKVQWKVDNALQSGNSQESVTEQDSKDSTYSLSSTLTLSKADYEKHKVYACEVTHQGLSSPVTKSFNRGEC
notes: Wild-type SIRPαV2D1 linked to C-terminus of each heavy chain of HuCD40-C1H1-V2 (human IgG2)
In the case of B5, in assay [1], the Kd came out at 0.771 nM, the koff came to 0.00188 s⁻¹ and the on-rate (kon) was 2.44e+06 M⁻¹ s⁻¹. In addition, the response in assay [3] was half-maximal at 1.45 nM (EC50). Also, the IC50 in assay [4] is approximately 2.21 nM.
